Experimental data published in article PMC4919518.
Substitutions are numbered along the chain they refer to.

Key:
Assay in all cases: fluorescence polarization; 5 mM Mg2+; FP: 20 mM HEPES-KOH pH 7.5, 200 mM NaCl, 5 mM MgCl2, 0.01 mg/ml E. coli total tRNA, 0.01% NP-40, 10 pM probe, 25 C; EMSA: 20 mM HEPES-KOH pH 7.5, 200 mM NaCl, 5
RsAgo Y463A/K467A = molecular target: T1, RsAgo Y463A/K467A (Rhodobacter sphaeroides (ATCC 17025D-5), UniProt A4WYU7 1-777, Y463A;K467A)
T1 sequence: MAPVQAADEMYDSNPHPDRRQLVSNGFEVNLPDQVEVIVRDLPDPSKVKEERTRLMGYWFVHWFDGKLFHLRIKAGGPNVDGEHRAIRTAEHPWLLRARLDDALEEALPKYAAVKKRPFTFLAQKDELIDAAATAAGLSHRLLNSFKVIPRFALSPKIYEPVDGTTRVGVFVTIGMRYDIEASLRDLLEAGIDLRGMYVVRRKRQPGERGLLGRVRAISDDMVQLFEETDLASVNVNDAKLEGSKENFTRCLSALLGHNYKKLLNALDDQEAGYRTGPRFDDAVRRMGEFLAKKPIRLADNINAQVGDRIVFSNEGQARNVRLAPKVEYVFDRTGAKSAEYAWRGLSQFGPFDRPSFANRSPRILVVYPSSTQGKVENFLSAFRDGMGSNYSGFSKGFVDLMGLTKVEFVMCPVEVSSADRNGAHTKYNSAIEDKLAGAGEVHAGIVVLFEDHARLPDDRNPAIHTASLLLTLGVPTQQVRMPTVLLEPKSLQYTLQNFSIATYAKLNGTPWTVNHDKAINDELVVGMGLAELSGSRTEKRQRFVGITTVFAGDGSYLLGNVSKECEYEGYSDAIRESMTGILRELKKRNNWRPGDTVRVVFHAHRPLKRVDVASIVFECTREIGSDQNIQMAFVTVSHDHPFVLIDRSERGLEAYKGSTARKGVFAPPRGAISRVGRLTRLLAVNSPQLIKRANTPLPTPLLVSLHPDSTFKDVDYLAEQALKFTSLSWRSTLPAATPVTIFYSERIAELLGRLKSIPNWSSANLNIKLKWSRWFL

RsAgo delL777 = molecular target: T2, RsAgo delL777 (Rhodobacter sphaeroides (ATCC 17025D-5), UniProt A4WYU7 1-776, del777-777)
T2 sequence: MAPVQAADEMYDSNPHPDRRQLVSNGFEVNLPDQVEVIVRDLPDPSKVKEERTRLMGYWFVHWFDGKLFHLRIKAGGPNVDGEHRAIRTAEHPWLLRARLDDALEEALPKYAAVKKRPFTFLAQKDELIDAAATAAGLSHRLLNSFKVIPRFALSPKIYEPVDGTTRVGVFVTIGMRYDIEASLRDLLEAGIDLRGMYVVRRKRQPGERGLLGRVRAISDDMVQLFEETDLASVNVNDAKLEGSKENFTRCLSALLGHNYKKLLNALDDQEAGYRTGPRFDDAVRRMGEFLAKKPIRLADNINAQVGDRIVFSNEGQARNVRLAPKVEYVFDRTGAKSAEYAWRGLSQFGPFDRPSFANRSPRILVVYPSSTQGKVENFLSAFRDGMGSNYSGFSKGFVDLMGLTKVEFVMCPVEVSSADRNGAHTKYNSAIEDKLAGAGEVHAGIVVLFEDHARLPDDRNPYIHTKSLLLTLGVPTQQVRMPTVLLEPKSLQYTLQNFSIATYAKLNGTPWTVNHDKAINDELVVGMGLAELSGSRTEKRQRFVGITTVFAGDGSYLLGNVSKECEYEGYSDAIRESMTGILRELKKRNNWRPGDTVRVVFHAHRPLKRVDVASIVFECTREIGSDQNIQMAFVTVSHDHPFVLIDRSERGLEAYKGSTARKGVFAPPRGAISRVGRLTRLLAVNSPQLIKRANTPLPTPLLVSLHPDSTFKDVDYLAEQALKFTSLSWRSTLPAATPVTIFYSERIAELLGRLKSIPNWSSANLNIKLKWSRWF

RsAgo WT = molecular target: T3, RsAgo WT (Rhodobacter sphaeroides (ATCC 17025D-5), UniProt A4WYU7 1-777)
T3 sequence: T1 sequence with A463Y, A467K

Question: With UUACAACCUACUACCUCG (ssRNA, 5'-phosphate) [5'P-RNA (5'U-RNA), FAM] as the binder, how does the Kd (RsAgo Y463A/K467A) read?
Answer: 1700 ± 123 nM

Question: And the Kd (RsAgo delL777)?
Answer: 38.7 ± 2.1 nM

Question: And the Kd (RsAgo WT)?
Answer: 0.91 ± 0.06 nM
